From IntAct's records for PubMed 30679749

target: hs12a_human HSPA12A (UniProt O43301)
Sequence of UniProt O43301 (O43301 whole entry): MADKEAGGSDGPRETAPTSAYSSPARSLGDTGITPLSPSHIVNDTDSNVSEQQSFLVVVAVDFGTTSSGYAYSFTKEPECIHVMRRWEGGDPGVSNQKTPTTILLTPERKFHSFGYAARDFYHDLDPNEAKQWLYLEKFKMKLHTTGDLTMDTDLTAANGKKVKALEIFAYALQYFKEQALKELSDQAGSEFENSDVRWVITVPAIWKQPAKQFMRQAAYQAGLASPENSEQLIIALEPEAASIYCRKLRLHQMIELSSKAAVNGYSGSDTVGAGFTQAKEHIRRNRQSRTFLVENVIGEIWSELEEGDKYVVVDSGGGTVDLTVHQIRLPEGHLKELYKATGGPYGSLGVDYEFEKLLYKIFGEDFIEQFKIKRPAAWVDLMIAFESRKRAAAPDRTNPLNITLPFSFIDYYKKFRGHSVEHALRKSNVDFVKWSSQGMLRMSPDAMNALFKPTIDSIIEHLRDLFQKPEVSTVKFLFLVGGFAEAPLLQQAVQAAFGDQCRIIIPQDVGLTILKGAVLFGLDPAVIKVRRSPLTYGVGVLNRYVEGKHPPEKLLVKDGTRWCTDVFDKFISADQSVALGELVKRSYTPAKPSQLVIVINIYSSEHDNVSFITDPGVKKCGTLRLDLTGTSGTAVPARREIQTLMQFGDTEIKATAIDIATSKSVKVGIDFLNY

Row | effect of a mutation on the interaction | Substance
1 | with no effect | Sortilin-related receptor (Homo sapiens), Q92673 D2190A;D2191A
2 | disrupting interaction strength | Sortilin-related receptor (Homo sapiens), Q92673 D2207A;D2208A
3 | disrupting interaction strength | Sortilin-related receptor (Homo sapiens), Q92673 E2194A;D2195A;D2196A;E2197A;D2198A
4 | with no effect | Sortilin-related receptor (Homo sapiens), Q92673 F2205A;S2206A
5 | with no effect | Sortilin-related receptor (Homo sapiens), Q92673 T2203A;G2204A
6 | with no effect | Sortilin-related receptor (Homo sapiens), Q92673 V2209A;P2210A
